# Data as given in the supplement of paper PMC9942255.
# Tested on: Bacillus subtilis DB104 (SP-AmyQ fusion secretion)
# Assay: AmyQ secretion efficiency, weighted average sort bin (1 = best secretion, 10 = worst) (bin number (weighted average, 1-10)); higher = lower secretion efficiency
# Outline: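 With fluorescein-starch as substrate, a B. subtilis DB104 library expressing mature AmyQ fused to designed signal peptides (integrated at amyE) was encapsulated at about 0.3 cells per ~65 nL alginate bead. After about 13 h at room temperature, beads were nile red stained, and occupied beads were sorted by large-particle flow cytometry into 10 equally populated bins by green/red fluorescence ratio. Illumina sequencing of the amplicons in each bin was used to calculate the secretion score, which is the read-frequency-weighted average bin number, normalised to beads per bin, with low-abundance sequences left out.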
row,Sequence,AmyQ secretion efficiency
1,MKKKQVMLKRTAAAGLGLTALHSAPAAKAAPL,6.55
2,MRKILLSSALSLGMLVSAAPVLATSS,1.66
3,MKLWMRKTLVVLFTIVTFGLVSPPAALMFDKP,3.85
4,MKRKIVRMTLPLLIVCLAFSSFSASARAASE,2.21
5,MFKKHTISLLIIFLLASAVLAKPIEEHTV,5.81
6,MPIKKKVMMCLAVTLVFGSMSFPTLTNVGGFKE,5.79
7,MKRFSTAYLLLGILCSAAVFLIGAPSRALGADD,3.2
8,MPYLKRVLLLLVTGLFMSLFAVTATASNQTG,1.29
9,MAIIIAIIAAVIVIAALITFNVQNASPG,7.71
10,MGLGKKLSVAVAASFMSLSISLPGVQLAEG,4.12
11,MKSKWMSGLLLVAVGFSFTQVMWHAGET,7.01
12,MKIRKILLSSALSFGMLISAVPALAAGR,2.62
13,MKRKLRRKRRKSALSLGLLVSAPTASFAAES,7.05
14,MKKAFLVFLSVVLVTTVFLVKQQEAQAKQL,2.1
15,MRKFLKSNFRFLLAAALGISLLASSNFIKASND,4.13
16,MKSCKQLIVCSLAAILLLIPSVSFAAPR,1.96
17,MAIIIAIIAAVIVIAALITFEVRNASPG,5.68
18,MKKVLMAFIICLSLILSVLAAPPSGQKAESV,7.08
19,MPKKCSVCLWILVLLLSCLSGKSAYAATS,2.99
20,MKNMSCKLVVSVTLFFSFLTIGPLNHAQNS,5.54
21,MKKTIMSFVAVAALSTTAFGAHASAATK,3.57

row,Sequence,AmyQ secretion efficiency
1,MLKRTSFVSSLRRKRKKLLSILLPSGQAHAQSA,6.99
2,MRKKRVITCVMAASLTLGSLLPAGYVSAKED,3.76
3,MKKVLMAFIICLSLILSVLAAAKAESV,4.23
4,MKRSISIFITCLLITLLTMGGMIASPASTAGT,4.46
5,MKKRLIAPMLLSAASLAFFAMSGSSVTAGAQAAAY,6.18
6,MFRKLLSSLAISALSLGLLVSAPTASFAAES,5.47
7,MLLKWMSGLLLVAVGFSFTQVMVHAGET,5.02
8,MKKKQVLALTAAAGLGLTALHSAPAAKAAPL,2.4
9,MPIKKKVMMCLAVTLVFGSMSFPTLTNSGFFKE,4.32
10,MLKKKWMVGLLAGCLAAGVALALSGFSYNAFATEN,5.02
11,MRSYIKVLTMCFLGLILFVPTALGDNS,2.8
12,MRPVFPLILSAVLFLFGARQTEASASKR,5.49
13,MFKKHTISLLIIFLLAATFFSFTSLISAVLAKPIEAHTV,4.38
14,MKKRLIGFLVLVPALIMSGITLAEANKK,7.38
15,MRKKTKNRLISSVLSTVVISSLLFPGAAGASSD,2.47
16,MKWMCSICCAAVLLAGESAQAEAV,3.16
17,MKRIRIPMTLALGAALTIAPLSFISAEEN,3.01
18,MTKKAWFLPLVCVLLISGWLAPAASASAQED,2.97
19,MTSSGGMFIVFICFFVLFSVHPIAAAAADS,6.41
20,MLKKKWMVGLLAGCLAAGGFSYNAFETEN,6.72
21,MKLSVKIRKVLTVAAAAMTAKMYATAKGN,6.94

row,Sequence,AmyQ secretion efficiency
1,MKRKLLSSLAISALSLGLLVSAPTASFAASS,1.56
2,MKNMSCKLVVSVTLFFSFLDEDPLAHAQNS,2.75
3,MRSKKLWISLLFALFTMAFSNMSAQAAGK,2.16
4,MKSLPYTIALLFCGLIIVSMAAKGHED,7.33
5,MKKSQYFIVFICFFVLFSVHPIATAAADS,3.6
6,MRNLTKTSLLLAGLCTAAQMVFVTHASADDE,5.02
7,MRKTIFAFLTGLMMFGTITAASASPR,4.47
8,MHLIRAAGAVCLAVVLIAGCRFNEDQHQAENENT,5.95
9,MKKWIYVVLVLSIAGIGGFSLHAASS,6.87
10,MKKMLMLAFTFLLALTIHVGEASAVRK,2.01
11,MTLWMTSTLLVVLFTIVTFGLVSPPAALMADKP,5.58
12,MKRFKKKKSFLSIIVAYPIQTNASPM,5.88
13,MRKWYQYQGAGVLTSVILAFVYDKTKANEE,8.25
14,MRKKTKNRLISSVLSTVVISSLLFPGAAGASSP,1.67
15,MKVLLSALLLLLFAFEPSASGAPR,3.63
16,MSSMTCKLVVSVTLFFSFLTIGPLAHAQNS,1.57
17,MMKKLFHSTLRRRRFFSFFGVQPIHAKKQ,7.67
18,MIRSISIFITCLLITLLTMGGMIASPASAAGT,2.35
19,MMKKGQSGSALTATVLFGTCAVDVPGIISPKTAEAASQ,6.78
20,MKLSVKIAGVLTVAAAAMTAKMYATHKGN,6.71
21,MKRLLVSLRVWMVFLMNWVTPDRKTYAAAVY,6.89
